Assay results as given in PMC9943675, “Depletion of the RNA-binding protein PURA triggers changes in posttranscriptional gene regulation and loss of P-bodies”.

Biological target: T1, PURA (Pur-alpha) (Homo sapiens, UniProt Q00577 1-322)
T1 sequence: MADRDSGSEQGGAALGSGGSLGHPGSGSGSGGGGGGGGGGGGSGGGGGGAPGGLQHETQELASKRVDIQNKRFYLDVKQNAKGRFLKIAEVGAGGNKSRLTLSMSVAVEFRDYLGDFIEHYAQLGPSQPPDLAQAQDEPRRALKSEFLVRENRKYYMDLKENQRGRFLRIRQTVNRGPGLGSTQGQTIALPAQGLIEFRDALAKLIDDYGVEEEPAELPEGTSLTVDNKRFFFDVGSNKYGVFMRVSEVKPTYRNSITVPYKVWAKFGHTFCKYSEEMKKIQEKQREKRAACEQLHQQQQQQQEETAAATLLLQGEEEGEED
Assay: EMSA; 100 ug/ml yeast tRNA; 250 mM NaCl, 20 mM HEPES pH 8.0, 3 mM MgCl2, 4% glycerol, 2 mM DTT, 100 ug/ml yeast tRNA, 2.5 nM RNA, 20 min RT; 6% TBE gel
Conditions: protein: recombinant; tags: GST-PURA (pOPIN-J); GST removed with 3C protease; chain copies: 2; label: 5' 32P

B1: CLTA (ssRNA)
RNA: GUUGUUUGUGAUUGCAUGUUUCCUUCCUUCAACUGUGUUCUCCCUGGCAUU
B1: binds.

B2: CLTC (ssRNA)
RNA: GUCUUGUGUGUGUUUACUAACCCUUCCCUGAGGUUUGUGUAUGUUGGAUAUUGUGGUGUUUUAG
B2: binds.
